# Results taken from publication PMC12440816.
# How the values were obtained:
# [1] = target: MCM replicative helicase hexamer (Mcm2–7), loaded on DNA (Saccharomyces cerevisiae) (UniProt P29469)
# [2] = target: MCM replicative helicase hexamer (Mcm2–7), loaded on DNA (Saccharomyces cerevisiae) (UniProt P29469); remark: listed apart in the source
# [3] = target: Luc-MCM/Cdt1 (luciferase-tagged MCM in complex with Cdt1) [Saccharomyces cerevisiae]; assay: MCM recruitment assay (DNA pulldown, luciferase-tagged MCM) in ATPγS; conditions: ARS1 origin, read off a plot
Substance,"high-salt-resistant luciferase-tagged MCM on the 300 bp[lacO] template at 30 min, with IPTG against without IPTG (SHs loaded by Orc2∆N behind a LacI roadblock) [1]","high-salt-resistant luciferase-tagged MCM on the 300 bp[lacO] template, with IPTG against without IPTG, after free MCM–Cdt1 and Cdc6 were washed off [2]",response ([3]; + CDK (Orc2 phosphorylated)),response ([3]; - CDK (ORC not phosphorylated))
"MCM replicative helicase hexamer (Mcm2–7), loaded on DNA, P29469 1-868; P24279 1-971; P30665 1-933; P29496 1-775; P53091 1-1017; P38132 1-845",3.8 fold,3.3 fold,–,–
"origin recognition complex (ORC), wild type mutant Orc6:S106A; Orc6:S116A; Orc6:S123A; Orc6:T146A [Saccharomyces cerevisiae] / Luc-MCM/Cdt1 (luciferase-tagged MCM in complex with Cdt1) [Saccharomyces cerevisiae] chain 6 S106A, chain 6 S116A, chain 6 S123A, chain 6 T146A",–,–,230 fmol,250 fmol
